This note sets out measurements from PMC6318328, “Structural insights into trans-histone regulation of H3K4 methylation by unique histone H4 binding of MLL3/4” (Nature Communications, 2019).

In this experiment the target is MLL3 ePHD6 E1097A (human) (UniProt Q8NEZ4). Kind of experiment: ITC; peptide (1–2 mM) in the syringe injected into protein (50–100 μM) in the cell; 25 °C; 20 mM Tris pH 7.5, 150 mM NaCl; single-site binding model. A general note: In ITC the heat of successive injections is recorded.

“histone H4 peptide H4_(11–21) (from UniProt P62805 12-22)” gave a fold reduction of binding against the wild type of 2 fold.
